Columns and labels:
Assay in all cases: SPR
[1] = target: human recombinant TLR4 protein (without MD2) (human, UniProt O00206 24-631)
integrin αvβ3 protein = target: T1, integrin αvβ3 protein (UniProt P06756 31-1048; P05106 27-718)
T1 chain 1: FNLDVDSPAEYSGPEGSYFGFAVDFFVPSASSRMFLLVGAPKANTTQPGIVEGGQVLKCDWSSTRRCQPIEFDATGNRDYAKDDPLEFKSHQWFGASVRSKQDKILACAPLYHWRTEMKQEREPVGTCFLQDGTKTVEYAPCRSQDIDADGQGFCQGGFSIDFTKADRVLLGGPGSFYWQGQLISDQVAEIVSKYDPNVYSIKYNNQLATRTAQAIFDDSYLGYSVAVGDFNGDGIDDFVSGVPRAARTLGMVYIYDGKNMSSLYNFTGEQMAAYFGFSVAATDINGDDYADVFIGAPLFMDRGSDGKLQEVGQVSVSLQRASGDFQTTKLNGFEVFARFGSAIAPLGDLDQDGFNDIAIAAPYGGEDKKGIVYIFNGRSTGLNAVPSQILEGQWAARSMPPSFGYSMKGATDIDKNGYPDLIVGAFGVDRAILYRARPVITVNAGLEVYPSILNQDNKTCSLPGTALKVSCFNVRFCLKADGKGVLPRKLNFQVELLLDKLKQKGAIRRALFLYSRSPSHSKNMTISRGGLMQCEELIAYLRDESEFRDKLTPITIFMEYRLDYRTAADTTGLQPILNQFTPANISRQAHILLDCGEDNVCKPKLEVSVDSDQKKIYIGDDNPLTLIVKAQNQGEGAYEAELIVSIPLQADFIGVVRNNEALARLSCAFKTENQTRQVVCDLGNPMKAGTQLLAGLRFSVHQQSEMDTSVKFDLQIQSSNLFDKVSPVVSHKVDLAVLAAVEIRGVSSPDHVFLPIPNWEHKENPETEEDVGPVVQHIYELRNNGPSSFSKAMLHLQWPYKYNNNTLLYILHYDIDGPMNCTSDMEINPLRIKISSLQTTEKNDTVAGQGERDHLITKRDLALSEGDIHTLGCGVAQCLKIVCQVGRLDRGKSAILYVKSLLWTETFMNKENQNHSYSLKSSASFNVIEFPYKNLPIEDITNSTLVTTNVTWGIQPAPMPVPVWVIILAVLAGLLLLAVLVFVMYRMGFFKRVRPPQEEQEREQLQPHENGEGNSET
T1 chain 2: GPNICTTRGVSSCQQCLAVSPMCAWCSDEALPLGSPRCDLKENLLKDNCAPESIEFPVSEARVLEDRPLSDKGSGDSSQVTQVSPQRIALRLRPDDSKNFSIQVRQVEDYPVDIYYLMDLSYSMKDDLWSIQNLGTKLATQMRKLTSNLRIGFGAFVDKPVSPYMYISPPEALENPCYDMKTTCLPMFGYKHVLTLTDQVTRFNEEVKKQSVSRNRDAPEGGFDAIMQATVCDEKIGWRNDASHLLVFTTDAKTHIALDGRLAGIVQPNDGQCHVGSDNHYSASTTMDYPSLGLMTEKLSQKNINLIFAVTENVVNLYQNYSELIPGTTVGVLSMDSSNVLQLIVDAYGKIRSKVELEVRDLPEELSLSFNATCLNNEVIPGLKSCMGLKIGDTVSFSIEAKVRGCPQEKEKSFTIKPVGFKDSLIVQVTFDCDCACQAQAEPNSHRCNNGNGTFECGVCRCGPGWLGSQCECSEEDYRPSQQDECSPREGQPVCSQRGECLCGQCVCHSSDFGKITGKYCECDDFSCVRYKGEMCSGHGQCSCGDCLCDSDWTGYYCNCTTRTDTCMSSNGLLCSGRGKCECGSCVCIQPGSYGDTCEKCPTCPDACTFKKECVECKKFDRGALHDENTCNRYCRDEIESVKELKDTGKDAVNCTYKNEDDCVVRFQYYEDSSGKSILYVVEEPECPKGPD

[2] = target: human recombinant TLR2 protein (human, UniProt O60603 21-588)
Chain of human recombinant TLR2 protein (O60603 21-588): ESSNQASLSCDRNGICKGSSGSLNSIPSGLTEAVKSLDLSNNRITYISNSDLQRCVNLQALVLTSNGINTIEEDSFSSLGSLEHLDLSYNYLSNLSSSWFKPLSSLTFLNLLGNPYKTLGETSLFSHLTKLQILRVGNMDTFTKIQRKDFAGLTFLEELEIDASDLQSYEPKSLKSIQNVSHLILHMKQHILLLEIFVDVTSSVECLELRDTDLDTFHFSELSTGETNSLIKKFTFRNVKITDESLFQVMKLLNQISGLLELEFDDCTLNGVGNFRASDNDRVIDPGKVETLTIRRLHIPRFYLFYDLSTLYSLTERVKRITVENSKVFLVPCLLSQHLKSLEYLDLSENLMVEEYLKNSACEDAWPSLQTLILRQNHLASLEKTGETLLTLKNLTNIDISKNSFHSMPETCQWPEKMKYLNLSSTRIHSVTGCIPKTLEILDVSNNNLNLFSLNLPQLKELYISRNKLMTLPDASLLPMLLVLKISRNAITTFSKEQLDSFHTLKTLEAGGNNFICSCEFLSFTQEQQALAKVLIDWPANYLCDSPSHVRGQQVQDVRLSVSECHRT

Chain of human recombinant TLR4 protein (without MD2) (O00206 24-631): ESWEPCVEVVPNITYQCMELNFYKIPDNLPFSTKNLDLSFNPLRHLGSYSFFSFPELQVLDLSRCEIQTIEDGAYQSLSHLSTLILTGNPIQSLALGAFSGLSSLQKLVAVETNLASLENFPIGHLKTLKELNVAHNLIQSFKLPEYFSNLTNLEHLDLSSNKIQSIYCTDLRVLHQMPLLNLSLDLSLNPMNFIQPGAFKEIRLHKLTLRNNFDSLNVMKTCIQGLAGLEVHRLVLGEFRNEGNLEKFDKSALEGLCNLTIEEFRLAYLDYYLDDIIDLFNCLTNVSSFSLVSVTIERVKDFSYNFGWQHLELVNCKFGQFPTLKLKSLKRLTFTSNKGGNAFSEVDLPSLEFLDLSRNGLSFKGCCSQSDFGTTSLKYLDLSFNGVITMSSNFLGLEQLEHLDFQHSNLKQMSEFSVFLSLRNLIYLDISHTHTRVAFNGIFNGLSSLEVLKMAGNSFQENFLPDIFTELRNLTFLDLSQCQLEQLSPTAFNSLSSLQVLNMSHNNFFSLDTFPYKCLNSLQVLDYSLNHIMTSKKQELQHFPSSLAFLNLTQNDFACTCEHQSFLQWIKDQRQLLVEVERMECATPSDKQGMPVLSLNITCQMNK

koff [1]: 0.00288 s⁻¹ | koff (integrin αvβ3 protein): 0.0193 s⁻¹ | koff [2]: 0.0146 s⁻¹
B1: CCN1-WT (recombinant matricellular protein CCN1) (natural protein)
chain: TCPAACHCPLEAPKCAPGVGLVRDGCGCCKVCAKQLNEDCSKTQPCDHTKGLECNFGASSTALKGICRAQSEGRPCEYNSRIYQNGESFQPNCKHQCTCIDGAVGCIPLCPQELSLPNLGCPNPRLVKVSGQCCEEWVCDEDSIKDSLDDQDDLLGLDASEVELTRNNELIAIGKGSSLKRLPVFGTEPRVLFNPLHAHGQKCIVQTTSWSQCSKSCGTGISTRVTNDNPECRLVKETRICEVRPCGQPVYSSLKKGKKCSKTKKSPEPVRFTYAGCSSVKKYRPKYCGSCVDGRCCTPLQTRTVKMRFRCEDGEMFSKNVMMIQSCKCNYNCPHPNEASFRLYSLFNDIHKFRD

Source: PMC7060279 (2020)
